Assay results published in US20230121197A1, “ANTIBODIES SPECIFICALLY BINDING THE CARBOXYMETHYLATED CATALYTIC SUBUNIT OF PROTEIN PHOSPHATASE 2A” (Medizinische Universität Wien, priority 2020, published 2023).

Tests used:
[1] = biological target: T1, C-terminal PP2Ac peptide Y307F, CGEPHVTRRTPDFFL (15-mer); test: Western blot of 100 ng BSA crosslinked with peptide, detected through 16B12
T1 construct: Non-carboxymethylated; Phe in place of Tyr307; Crosslinked to BSA in the Western blot; free or linked to BSA in the ELISA
T1 peptide: CGEPHVTRRTPDFFL
Description: 100 ng of BSA crosslinked with peptides (L309: […] (SEQ ID NO:49), Y307F: […] (SEQ ID NO.50), pY307: […]pYFL (SEQ ID NO:51) or meL309: […]-CH₃) (SEQ ID NO:49) was separated by 10% SDS-PAGE and transferred to nitrocellulose membrane (0.2 μm, GE Healthcare). […] The membranes were blocked in 3% non-fatty dry milk (NFDM) in TBS-Tween for 1 h at RT and incubated with single clone hybridoma cell culture supernatant, clone 7C10-C5 diluted 1:100 in 0.5% NFDM in TBS-T (7C10 X63), recombinant single chain variable fragment of antibody 7C10-C5, undiluted (7C10 scFvs), recombinant bivalent single chain variable fragment 7C10-C5, undiluted (7C10 bi-scFvs) or single clone hybridoma cell culture supernatant, clone 1D7 (binding to non-carboxymethylated PP2Ac) 1:100 in 0.5% NFDM in TBS-T o/n at 4° C. After washing 3×5 min in TBS-T, blots incubated with recombinant antibodies were incubated with mouse anti-HA monoclonal antibody 16B12 (recognizing the hemagglutinin (HA) tag on the recombinant antibody), 1:10000 in 0.5% NFDM in TBS-T 2 h at room temperature. After washing 3×5 min in TBS-T, incubation with anti-mouse-HRP coupled secondary antibody for 1 h at RT and 3×10 min washes in TBS-T was performed. ECL was performed with GE Healthcare ECL reagents (RPN2106) mixed 1:3 with Clarity™ Western ECL Substrate, 500 ml #1705061 (Biorad). Signals were detected by exposure of X-ray films. […]

PP2Ac = biological target: T2, PP2Ac (Homo sapiens, UniProt P67775); test: Western blot of human cell lysates (HAP1, HEK293; NaOH treatment, Lcmt-1-KO); type: binding; settings: HAP1, HEK293
T2 construct: the carboxy-terminal methyl group was chemically removed from cellular PP2Ac; endogenous in cells; host or cells: HAP1 wild type, HAP1 Lcmt-1-KO, HEK293Trex / HEK293T
T2 sequence (P67775 whole entry): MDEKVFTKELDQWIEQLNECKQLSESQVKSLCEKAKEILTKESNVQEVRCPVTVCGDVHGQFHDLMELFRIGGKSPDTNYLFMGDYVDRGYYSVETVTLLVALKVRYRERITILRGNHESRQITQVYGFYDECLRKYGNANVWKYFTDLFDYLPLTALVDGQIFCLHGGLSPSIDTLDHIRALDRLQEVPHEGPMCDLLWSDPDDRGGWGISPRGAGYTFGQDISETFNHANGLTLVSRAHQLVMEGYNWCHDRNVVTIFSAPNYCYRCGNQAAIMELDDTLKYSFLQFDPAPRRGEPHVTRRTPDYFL
Description: NIH3T3 mouse fibroblasts and human embryonic kidney cells (HEK293Trex) were grown in DMEM+10% FCS+2 mM L-glutamine (Sigma, G2150)+100 units/ml Penicillin/0.1 mg/ml Streptomycin at 37° C. in a 7.5% CO2 atmosphere. HAP1 wild type and HAP1 Lcmt-1-KO cells (Leucine carboxyl methyltransferase 1 deleted by CRISPR/Cas9; Horizon Discovery, #C631 and #HZGHC004373c001) were grown in Iscove's Modified Dulbecco's Medium (IMDM, Thermo Fischer Scientific, Life Technologies #12440053) supplemented with 10% (v/v) Fetal Calf Serum (FCS) (Sigma #F7524, lot 104M3333), GlutaMAX™ (Thermo Fischer Scientific, Life Technologies #35050-38, lot 1895829), and Penicillin-Streptomycin solution (Sigma, #P4333, lot 125M4781V) in a 5% CO2 atmosphere. Of note, HAP1 is a near-haploid human cell line that was derived from the chronic myelogenous leukemia (CML) cell line KBM-7 (Carette (2011), Nature 477(7364):340-3). For cell lysis, exponentially growing cells were washed once with ice-cold PBS, once with ice-cold IP-Wash buffer (20 mmol/l Tris pH 8.0, 135 mmol/l NaCl, 10% glycerol) and lysed on the petri-dish in ice-cold IP-Lyse buffer (18 mmol/l Tris pH 8.0, 122 mmol/l NaCl, 9% glycerol, 1% w/v NP-40) for 20 min at 4° C. rocking. Lysed cells were transferred to Eppendorf 1.5 ml tubes and centrifuged for 15 min at 14,000 rpm at 4° C. in a Beckman & Coulter Microfuge 18 centrifuge. The protein concentration was determined with the Protein Assay Dye Reagent (Biorad, 500-0006) and measurement of absorbance at 595 nm in a Hitachi U-2000 spectrophotometer. […]
To test these antibodies in the western blot analysis with methylated and non-methylated full-length PP2Ac the methyl group was chemically removed from cellular PP2Ac by treating lysates of the human cell line, HAP1, with NaOH, as described in Example 2. […] In agreement with the results of the NaOH experiments, […] of PP2Ac were detected in HAP1 cells that lack the PP2A methyltransferase LCMT-1 indicating the preference of these antibodies for non-methylated PP2Ac (FIG. 22). […]

[2] = biological target: T3, C-terminal PP2Ac peptides L309, Y307F, pY307, meL309 (Homo sapiens, UniProt P67775); test: ELISA with CGEPHVTRRTPDYFL peptides free or linked to BSA (scFv and recombinant 7C10-C5); type: binding; settings: peptides free or linked to BSA
T3 construct: coated with C-terminal PP2Ac peptides either free or linked to BSA; BSA (carrier)
Description: Nunc Medisorp 96-well ELISA flat-bottom plates were coated with C-terminal PP2Ac peptides either free or linked to BSA. Specifically, the peptides were: unmodified L309 (CGEPHVTRRTPDYFL) (SEQ ID NO:49), Y307F (CGEPHVTRRTPDFFL) (SEQ ID NO:50), pY307 (CGEPHVTRRTPDpYFL) (SEQ ID NO:51) or carboxymethylated meL309 (CGEPHVTRRTPDYFL-CH3) (SEQ ID NO:49), on the ELISA plate at 8 μg/ml in TBS (free) or 1 μg/ml in TBS (linked to BSA) at 4° C. overnight. After washing twice with TBS, the wells were incubated with 2% BSA in TBS for 1 h at RT. After washing once with TBS, the wells were incubated with single clone hybridoma cell culture supernatant, clone 7C10-C5 1:50 (7C10 X63), recombinant single chain variable fragment of antibody 7C10-C5, undiluted (7C10 scFvs), or recombinant bivalent single chain variable fragment of antibody 7C10-C5, undiluted (7C10 bi-scFvs). After washing 3× with TBS, wells incubated with recombinant antibodies were incubated with monoclonal antibody 16B12, 1:10000 (recognizing the hemagglutinin tag on the recombinant antibody) in 1% BSA TBS 1 h at room temperature. After washing 3× in TBS, incubation with anti-mouse-HRP coupled secondary antibody for 1 h at RT was performed. Bound antibodies were detected by colorimetric reaction with 3,3′,5,5′-Tetramethylbenzidine as substrate, and absorbance was measured at 450 nm. Values were normalized to meL309 which was arbitrarily set to 1. Average and standard deviation of N=3 experiments are shown.
Nunc Medisorp 96-well ELISA flat-bottom plates were coated with peptides either free or linked to BSA, L309 (CGEPHVTRRTPDYFL) (SEQ ID NO:49) or meL309 (CGEPHVTRRTPDYFL-CH3) (SEQ ID NO:49), on the ELISA plate at 0.5 μg/ml in TBS (free) or […] in TBS (linked to BSA) at 4° C. over night. After washing twice with TBS, the wells were incubated with 2% BSA in TBS for 1 h at RT. After washing once with TBS, the wells were incubated with single clone hybridoma cell culture supernatant, clone 7C10-C5 1:50 (7C10 X63), or recombinant antibody 7C10-C5 undiluted (rec 7C10). After washing 3× with TBS, incubation with anti-mouse-HRP coupled secondary antibody for 1 h at RT was performed. Bound antibodies were detected by colorimetric reaction with 3,3′,5,5′-Tetramethylbenzidine as substrate, and absorbance was measured at 450 nm. Values were normalized to meL309 incubated with 7C10 X63, which was arbitrarily set to 1. Average and standard deviation of N=3 experiments are shown (FIG. 30).

B1: recombinant bivalent single chain variable fragment (scFv) of antibody 7C10-C5 (scFv)
scFv: DVLMTQTPLSLPVSLGDQASISCRSSQSIVHSNGNTYLEWYLQKPGQSPKLLIYKVSNRFSGVPDRFSGSGSGTDFTLKINRVEAEDLGVYYCFQGSHVPWTFGGGTKLEIKSSGGGGSGGGGGGSSRSSLDVQLQESGPGLVKPSQSLSLTCSVTGYSITSGYYWNWIRQFPGNKLEWMGYISYDGSNNYNPSLKNRISITRDTSKNQFFLKLNSVTTEDTATYYCAGRFAYWGQGTLVTVSAAKTTPPSVGSGSGSGSGSGSGSGSGSGSGSGSGSGSGSDVLMTQTPLSLPVSLGDQASISCRSSQSIVHSNGNTYLEWYLQKPGQSPKLLIYKVSNRFSGVPDRFSGSGSGTDFTLKINRVEAEDLGVYYCFQGSHVPWTFGGGTKLEIKSSGGGGSGGGGGGSSRSSLDVQLQESGPGLVKPSQSLSLTCSVTGYSITSGYYWNWIRQFPGNKLEWMGYISYDGSNNYNPSLKNRISITRDTSKNQFFLKLNSVTTEDTATYYCAGRFAYWGQGTLVTVSAAKTTPPSVTSGQAGQHHHHHHGAYPYDVPDYAS
notes: Two VL-linker-VH units joined by a (Gly-Ser)x15 linker, C-terminal 6xHis and HA tag; HEK293T supernatant, undiluted; Signal peptide (residues 1-22, before the first VL) left out by counting; also called 7C10 bi-scFvs; bivalent 7C10-C5 scFv
- binding result [1]: no binding (tested: undiluted supernatant)

B2: recombinant 7C10-C5: recombinant 7C10-C5 antibody with mIgCK light chain and mIgG2a heavy chain (SEQ ID NO:123, 125) (protein)
light: MDMRVPAQLLGLLLLWLSGARCDVLMTQTPLSLPVSLGDQASISCRSSQSIVHSNGNTYLEWYLQKPGQSPKLLIYKVSNRFSGVPDRFSGSGSGTDFTLKINRVEAEDLGVYYCFQGSHVPWTFGGGTKLEIKADAAPTVSIFPPSSEQLTSGGASVVCFLNNFYPKDINVKWKIDGSERQNGVLNSWTDQDSKDSTYSMSSTLTLTKDEYERHNSYTCEATHKTSTSPIVKSFNRNEC
heavy: MYRMQLLSCIALSLALVTNSDVQLQESGPGLVKPSQSLSLTCSVTGYSITSGYYWNWIRQFPGNKLEWMGYISYDGSNNYNPSLKNRISITRDTSKNQFFLKLNSVTTEDTATYYCAGRFAYWGQGTLVTVSAAKTTAPSVYPLAPVCGDTTGSSVTLGCLVKGYFPEPVTLTWNSGSLSSGVHTFPAVLQSDLYTLSSSVTVTSSTWPSQSITCNVAHPASSTKVDKKIEPRGPTIKPCPPCKCPAPNLLGGPSVFIFPPKIKDVLMISLSPIVTCVVVDVSEDDPDVQISWFVNNVEVHTAQTQTHREDYNSTLRVVSALPIQHQDWMSGKEFKCKVNNKDLPAPIERTISKPKGSVRAPQVYVLPPPEEEMTKKQVTLTCMVTDFMPEDIYVEWTNNGKTELNYKNTEPVLDSDGSYFMYSKLRVEKKNWVERNSYSCSVVHEGLHNHHTTKSFSRTPGK
modifications: Amino acid sequence of the recombinant 7C10-C5 light chain; Amino acid sequence of the recombinant 7C10-C5 heavy chain
- detection of PP2Ac in untreated versus NaOH treated cell lysates (PP2Ac): only detected methylated PP2Ac in the untreated cell lysates but not in the NaOH treated lysates
- recognition of meL309 versus non-carboxymethylated peptides [2]: Specific for the α-Carboxymethylated PP2Ac

B3: recombinant monovalent single chain variable fragment (scFv) of antibody 7C10-C5 (scFv)
scFv: DVLMTQTPLSLPVSLGDQASISCRSSQSIVHSNGNTYLEWYLQKPGQSPKLLIYKVSNRFSGVPDRFSGSGSGTDFTLKINRVEAEDLGVYYCFQGSHVPWTFGGGTKLEIKSSGGGGSGGGGGGSSRSSLDVQLQESGPGLVKPSQSLSLTCSVTGYSITSGYYWNWIRQFPGNKLEWMGYISYDGSNNYNPSLKNRISITRDTSKNQFFLKLNSVTTEDTATYYCAGRFAYWGQGTLVTVSAAKTTPPSVTSGQAGQHHHHHHGAYPYDVPDYAS
notes: VL - 19 aa linker - VH - 8 aa of CH1 - 6xHis - HA tag; secreted into HEK293T supernatant, used undiluted; also called 7C10 scFvs; monovalent 7C10-C5 scFv
- binding result [1]: no binding (tested: undiluted supernatant)
